From US20220056119A1

Molecular target: activin Type II receptors (ActRIIA and ActRIIB) on A204/CAGAx12-Luc cells
Assay: cell-based or functional assay

activation of the A204/CAGAx12-Luc cell line (Smad 2/3-luciferase reporter), EC50 [nM] | Binder
0.099 | Activin A (homodimer of two inhibin betaA subunits), P08476 311-426 (ligand) GLECDGKVNICCKKQFFVSFKDIGWNDWIIAPSGYHANYCEGECPSHIAGTSGSSLSFHSTVINHYRMRGHSPFANLKSCCVPTKLRPMSMLYYDDGQNIIKKDIQNMIVEECGCS
0.047 | Activin B (homodimer of two inhibin betaB subunits), P09529 293-407 (ligand) GLECDGRTNLCCRQQFFIDFRLIGWNDWIIAPTSYYGNYCEGSCPAYLAGVPGSASSFHTAVVNQYRMRGLNPGTVNSCCIPTKLSTMSMLYFDDEYNIVKRDVPNMIVEECGCA
